# T1: human VEGF121 (human, UniProt P15692 181-395)
# T1 construct: The limits of the proteins used (Humanzyme HZ-1206); also called human VEGFA121
# T1 sequence: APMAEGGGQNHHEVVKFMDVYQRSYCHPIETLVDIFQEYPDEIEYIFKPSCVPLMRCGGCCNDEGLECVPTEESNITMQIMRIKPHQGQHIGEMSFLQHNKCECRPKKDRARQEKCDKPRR
# T2: cynomolgus monkey IL6 (cynomolgus monkey, UniProt P79341 28-212, limits assumed)
# T2 construct: also called cynomolgus IL6; cyIL-6
# T2 sequence (looked up): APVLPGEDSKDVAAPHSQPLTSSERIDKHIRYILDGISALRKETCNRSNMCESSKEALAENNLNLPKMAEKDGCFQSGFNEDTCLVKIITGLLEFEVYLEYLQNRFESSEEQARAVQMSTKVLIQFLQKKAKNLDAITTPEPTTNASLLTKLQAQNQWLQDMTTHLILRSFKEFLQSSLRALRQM
# Legend:
# human IL6 [1] = molecular target: T3, human IL6 (human, UniProt P05231 30-212); experiment: cell-based or functional assay
# [2] = molecular target: human VEGF-A (isoform not given) (human, UniProt P15692-4 27-191, limits assumed); experiment: cell-based or functional assay
# human VEGF121 = molecular target: T1, human VEGF121; experiment: competition ELISA: Fab titrated against 10 pM VEGF121, free VEGF detected on plate-coated VEGF-R1
# Experimental: (§1) The contact time between the Fab-Antigen mixture and the receptor-coated plate was restricted to 10 min at RT in order to minimize interference with the binding equilibria. […] The latter is detected exploiting the chromogenic conversion of the HRP substrate 3,3′,5,5′-tetramethylbenzidine TMB to 3,3′,5,5′-tetramethylbenzidine […], which can be followed by a change in absorbance at 450 nm. TMB was prewarmed to room temperature and incubated on the plate for 5 min before being quenched by the addition of IN H₂SO₄.
# human VEGF165 = human VEGF165 (human, UniProt P15692-4 27-191); experiment: competition ELISA: Fab titrated against 10 pM VEGF165, free VEGF detected on plate-coated VEGF-R1
# Experimental: as §1
# human IL6 [3] = molecular target: T3, human IL6; experiment: SPR, Fab captured on anti-Fab chip, human IL6 as analyte
# Experimental: (§2) A Human Fab Binder (28958325, Cytiva) was diluted at a final concentration of 10 μg/ml in 10 mM sodium acetate buffer, pH 5.0 and immobilized on a CM5 sensor chip using standard amine coupling chemistry. […] The reference channel was treated accordingly.
# (§3) Prior to the protein measurements five startup cycles were performed for conditioning purposes. On each cycle, HBS-EP+ buffer was flowed for 120 s followed by the regeneration of the derivatized chip surface by applying 10 mM Glycine buffer pH2.0 for 60 s. Fab fragment at a concentration of 75 nM was captured on this surface for 60 s at a flow rate of 10 μl/min in HBS-EP+ buffer. No Fab fragment was applied to the reference channel. […] Regeneration of the derivatized chip surface was achieved as described above. Data were evaluated with 8K Evaluation software (Biacore Insight Evaluation 3.0). Double referencing was used and the 1:1 Binding model was used to fit the raw data.
# cynomolgus monkey IL6 [4] = molecular target: T2, cynomolgus monkey IL6; experiment: SPR, Fab captured on anti-Fab chip, cynomolgus IL6 as analyte
# Experimental: as §2, §3
# cynomolgus monkey IL6 [5] = molecular target: T2, cynomolgus monkey IL6; experiment: SPR in analogy to Example 3, Fab captured on anti-Fab chip
# Experimental: as §2, §3
# human IL6 [6] = molecular target: T3, human IL6; experiment: as above
# Experimental: as §2, §3
Binder,"IC50, inhibition of IL-6/IL-6R-induced ICAM-1 surface expression on HRMECs (flow cytometry) (human IL6 [1]) [nM]","IC50, inhibition of VEGF-A-induced HUVEC proliferation (alamarBlue) [2] [nM]",IC50 (human VEGF121) [nM],IC50 (human VEGF165) [nM],Kd (human IL6 [3]) [nM],Kd (cynomolgus monkey IL6 [4]) [nM],Kd (cynomolgus monkey IL6 [5]) [nM],Kd (human IL6 [6]) [nM]
"6HVL_4 (Fab, V domains shown, Bispecific Fab; also called VEGF/IL6-bispecific antibody 6HVL_4) VH: YPQLVESGGGLVQPGGSLRLSCEASVLFKHQDMSWVRQAPGKGLEWVGSIDPRGDHKYYNTKFIDRFTISRDNSKNTLYLQMNSLRAEDTAVYYCARDLDFMDEWGQGTLVTVSS VL: AIYMHQEPSSLSASVGDRVTITCQASYWLNSELAWYQQKPGKAPKLLIYDGDDRYPEVPSRFSGSGSHEDYTLTISSLQPEDFATYYCQQYRYTPYTFGQGTKLEIKR",1.52,2.06,0.458,0.111,0.069,1.48,–,–
"6HVL_4_YHE (Fab, V domains shown) VH: YPQLVESGGGLVQPGGSLRLSCEASVLFKHQDMSWVRQAPGKGLEWVGSIDPRGDHKYYNTKFIDRFTISRDNSKNTLYLQMNSLRAEDTAVYYCARDLDFMDEWGQGTLVTVSS VL: AIQMTQSPSSLSASVGDRVTITCQASYWLNSELAWYQQKPGKAPKLLIYDGDDRYPEVPSRFSGSGSHEDYTLTISSLQPEDFATYYCQQYRYTPYTFGQGTKLEIKR",–,–,0.528,0.135,0.065,1.39,–,–
"VH6L-BM (Fab, V domains shown, Prior art control, prepared by recombinant expression; also called bispecific antibody VH6L of WO2012/163520) VH: YYQLVESGGGLVQPGGSLRLSCAADGFLFSGYAMSWIRQAPGKGLEWIGQISGSGGSTVYNYNVLGRFTISRDNSKNTLYLQMNSLRAEDTAVYYCARDTGYFDHWGQGTLVTVSS VL: NIQKTQSPSSLSASVGDRVTITCRALWHISSYLAWYQQKPGKAPKLLIYAASHLHYGVPSRFSGSGSGTDFTLTISSLQPEDFATYYCQQYSGLPYTFGQGTKVEIK",–,–,–,–,3.5,–,–,–
"6HdL2.05 (Fab, V domains shown, also called monospecific anti-IL6 antibody 6HdL2.05) VH: YPQLVESGGGLVQPGGSLRLSCEASVLFKHQDMSWVRQAPGKGLEWVGSISPSGGSTYYNDNVLGRFTISRDNSKNTLYLQMNSLRAEDTAVYYCARDLDFMDEWGQGTLVTVSS VL: DIQMTQSPSSLSASVGDRVTITCRASQGISNYLAWYQQKPGKAPKLLIYDGDDRYPEVPSRFSGSGSGTDFTLTISSLQPEDFATYYCQQYYSTPYTFGQGTKLEIKR",–,–,–,–,–,–,1.3,0.022

# Source: US20250163139A1 (Hoffmann-La Roche, published 2025)
